2 substances from patent publication US20200139362A1, “Proto-Antigen-Presenting Synthetic Surfaces, Activated T Cells, and Uses Thereof” (Berkeley Lights, Inc., priority 2018, published 2020) can be followed below.

Square brackets hold non-standard residues; d marks the D form. Ends that are not written are not given here.

For assay [1], the target named is T1, HLA-A*02:01 (Homo sapiens, UniProt P04439, D140Y/D185E/D98H/E176V/E277Q/G131W/G231S/I119V/I121R/I166T/I218V/L300P/L318F/N151K/N90K/P208A/P217A/Q86G/Q94H/R138H/R169H/T345S). Nature of the assay: Peptide switching (exchange) on peptide-HLA-A*02:01 complex, anti-DNP antibody flow cytometry. The conditions noted are these: 20 micromolar peptide, 1 micromolar HLA-A*02:01 with DNP-labelled initial peptide LMYAKRAFV, 1 mM Glycl-Methionine, room temperature 4 hours; relative to control peptide […] set as 100%. It counts as binding. Here is the method:
To test binding of Immunogenic and Non-Immunogenic peptides to an MHC Class I complex, a peptide-HLA-A*02:01 complex with an initial peptide LMYAKRAFV (SEQ ID NO: 4) in the peptide binding groove was purchased. The initial peptide included a dinitrophenyl (DNP) moiety conjugated to the lysine at position 5. Two peptide antigens were then tested for their ability to bind to the MHC Class I complex: SLYSYFQKV (SEQ ID NO: 5) derived from SLC45A2 and SLLPIMwQLY (SEQ ID NO: 6) derived from TCL1. The peptides were resuspended in DMSO to 5 mg/mL. The peptides were then further diluted ten-fold in PBS. […]
Samples of unswitched peptide-MHC and switched peptide-MHC were then captured on Streptavidin-coated DynaBeads (ThermoFisher). […] The peptide-MHC beads were then stored at 4° C. until they were analyzed for peptide exchange.
To quantify peptide exchange, a FITC-conjugated anti-DNP antibody specific for the DNP-conjugated initial peptide was added to a sample of each captured peptide-MHC. […] The staining for pre-assembled peptide and intact pHLA complexes were detected by Flow Cytometry on a FACSCelesta with High-Throughput Sampler (BD Biosciences). […] Approximately 5,000 bead events were recorded for each sample. The Median Fluorescence Intensity (MFI) in the APC and FITC channels of each sample was then recorded. […]
Background: A flow cytometer gives signals particle by particle.

Assay [2] concerns the target T1, HLA-A*02:01. Nature of the assay: Peptide binding and stability of pMHC complexes under culture conditions (W6/32 antibody, flow cytometry). The settings on record: pMHC on Streptavidin DynaBeads in T Cell Culture Media at 37° C.; exponential decay fit of APC MFI. Here is the method:
To assess the stability of the pMHC Class I-peptide antigen complexes under the conditions that are used to culture T Cells, pMHC Class I complexes were first bound to beads. Biotinylated HLA-A*02:01 complexes loaded with either SLYSYFQKV (SEQ ID NO: 5) or SLLPIMwQLY (SEQ ID NO: 6) peptides were diluted to 0.83 micrograms/mL in Assay Buffer (PBS with 2 mM EDTA and 0.1% Bovine Serum Albumin). To 0.6 mL of the pMHC solutions in microcentrifuge tubes, 10^7 Streptavidin-coated DynaBeads (M-280, ThermoFisher) were added. The beads were mixed in the pMHC solution for 4 minutes at 2,000 rpm on a ThermoMixer (Eppendorf). The pMHC-beads were then captured on a magnetic rack, and the solution containing unbound pMHC removed by aspiration. 1 mL of Assay Buffer was added to the tubes, and then aspirated. The beads were then resuspended in 0.1 mL of Assay Buffer. The beads were then stored at 4° C. until use. […]
Antibody binding to the beads was then detected on a FACSCelesta with High-Throughput Sampler (BD Biosciences). […] Approximately 25,000 bead events were recorded for each sample. The Median Fluorescence Intensity (MFI) in the APC channel for the pHLA-beads in each sample was then recorded. […] The half-lives for the pHLA complexes were then calculated from the fitted decay constant.

“SLYSYFQKV (SLC45A2-derived peptide) [immunogenic peptide antigen derived from SLC45A2]”: the percent peptide switching entry with HLA-A*02:01 [1] is given as “about 99%”. In the assay with HLA-A*02:01 [2], the “half-life of peptide-HLA-A*02:01 complex” value is recorded as “about 17 hours”.

Regarding “SLLPIMwQLY (SLLPIM[dW]QLY) [TCL1-derived peptide, non-immunogenic peptide antigen derived from TCL1]”, the percent peptide switching entry with HLA-A*02:01 [1] is listed as “about 90%”. Moreover, the “half-life of peptide-HLA-A*02:01 complex” value with HLA-A*02:01 [2] is recorded as “about 0.5 hours”.
